T1: UBE2G2 (Homo sapiens, UniProt P60604)
T1 construct: made in house
T1 sequence (P60604 1-165): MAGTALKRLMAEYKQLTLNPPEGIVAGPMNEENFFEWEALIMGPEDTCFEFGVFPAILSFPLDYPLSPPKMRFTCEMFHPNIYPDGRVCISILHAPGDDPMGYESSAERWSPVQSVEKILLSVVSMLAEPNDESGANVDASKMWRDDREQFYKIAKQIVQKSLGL


Columns and labels:
[1] = test system: NHK (Null Hong Kong variant of alpha1-antitrypsin); experiment: CHX chase: NHK degradation in HT1080 AUP1 KO cells; assay type: cell-based, human; settings: for restoration of NHK degradation: full-length or deleted AUP1-FLAG re-expressed in HT1080 AUP1 KO cells, CHX 50 μg/mL
Description: Fig 1 The G2BR of AUP1 is required for ERAD of NHK. (A) HT1080 or cells in which HRD1 was knocked out by CRISPR/Cas-9 (HRD1 KO) were transfected with plasmid encoding carboxyl-terminally HA-tagged NHK. Cells were treated with CHX for the indicated times to inhibit protein synthesis and NHK-HA degradation monitored by western blot. GFP and HSP60 serve as transfection efficiency and gel loading controls, respectively. (B) HT1080 or cells in which either AUP1 or gp78 was knocked out (AUP1 KO or gp78 KO) were transfected with NHK-HA and their degradation assessed. (C) AUP1 KO cells were transfected with NHK-HA and empty vector or plasmid encoding carboxyl-terminally FLAG-tagged AUP1 and NHK degradation assessed. (D) Indicated cells were transfected with plasmid encoding carboxyl-terminally MYC-tagged INSIG-1 and assessed for INSIG-1 degradation. (E) Schematic representation of AUP1 in the ER membrane and deletion mutants used in subsequent experiments. Amino acid residues are numbered spanning each domain. (F) AUP1 KO cells were transfected with NHK-HA and plasmids encoding the indicated FLAG-tagged AUP1 WT or deletion mutants and assessed for NHK degradation. (G) HEK293 (Parental) or HEK293 AUP1 KO cells were assessed for degradation of NHK-HA. (H) HEK293 AUP1 KO cells were assessed for NHK-HA degradation as in (F). Markers represent apparent molecular weight in kDa. The data underlying this figure can be found in S1 Data. aa, amino acid; AUP1, ancient ubiquitous protein 1; CHX, cycloheximide; ER, endoplasmic reticulum; ERAD, endoplasmic reticulum–associated degradation; G2BR, UBE2G2 Binding Region; KO, knockout; NHK, Null Hong Kong; WT, wild type.
(§1) Fig 6 Disruption of UBE2G2:G2BR^AUP1 interaction abrogates AUP1 function in cells. (A) GST or indicated GST-AUP1 fusions (aa 292 to 410, expression shown in Coomassie-stained gel) were immobilized on glutathione beads and binding to ^35S-UBE2G2 was assessed as in Fig 3A. Mutations include 2A (R382A/Q383A), 2E (R382E/Q383E), and 5E (R382E/Q383E/K390E/R398E/R400E). (B) AUP1 KO cells were transfected with NHK-HA and forms of full-length AUP1-FLAG with the indicated point mutations from (A) and NHK degradation assessed by CHX chase. (C) Binding assay performed as in (A) with AUP1 mutants predicted to disrupt hydrophobic interactions with UBE2G2. (D) Cellular assay performed as in (B) with AUP1-FLAG mutants that disrupt interactions with UBE2G2 in vitro in (C). The data underlying this figure can be found in S1 Data. aa, amino acid; AUP1, ancient ubiquitous protein 1; CHX, cycloheximide; G2BR, UBE2G2 Binding Region; KO, knockout; WT, wild type.
Fig 8 Recruitment of UBE2G2 to the ER membrane and activation by G2BR^AUP1 is required for ERAD. (A) HT1080 or AUP1 KO cells were transfected with NHK-HA and either empty vector or MYC-UBE2G2 and NHK turnover assessed by CHX chase. (B) AUP1 KO cells were transfected with NHK-HA and GFP fusions of either a scrambled G2BR sequence (SCR) or G2BR^AUP1 and NHK turnover and levels of endogenous UBE2G2 assessed. Luciferase and β-actin served as transfection efficiency and gel loading controls, respectively. (C) AUP1 KO cells were transfected with NHK-HA, MYC-UBE2G2, and either GFP-SCR or GFP-G2BR^AUP1 and NHK turnover assessed. (D) Membrane fractionation was performed on HT1080 or AUP1 KO cells transfected with either empty vector or AUP1-FLAG and localization of UBE2G2 assessed by western blotting. Localization of β-actin (cytosol) and Calnexin (ER membrane) were used as controls for cytosolic (C) and membrane (M) fractions, respectively. (E) Membrane fractionation of AUP1 KO cells transfected with either MYC-UBE2G2 or TM-UBE2G2. (F) HT1080 cells were transfected with TM-UBE2G2 and its localization assessed by confocal microscopy. Images shown are from an optical section after deconvolution. HA-tagged UBE2J2, an ER-localized E2, serves as an ER marker. […]

UBE2G2 = target: T1, UBE2G2; experiment: GST pulldown of in vitro translated 35S-UBE2G2; assay type: binding; settings: GST-AUP1 aa 292 to 410 on glutathione beads, ~3 pmol GST fusion, ~0.2 pmol E2, overnight 4°C, pH 7.4
Description: Fig 3 The AUP1–UBE2G2 interaction is required for ERAD. (A) Equimolar amounts of GST-AUP1 (aa 292 to 410) or GST were immobilized on glutathione beads and binding to the indicated in vitro translated ^35S-labeled E2s was assessed. Left panel is 5% of input used for binding. E2s are referred to by their unique alpha-numeric designation (e.g., UBE2G1 and UBE2J1). (B) HT1080 or UBE2G2 KO cells were transfected with INSIG-1-MYC and degradation assessed by CHX chase. […] (D) Cells were transfected with NHK-MYC and HA-ubiquitin and ubiquitination of NHK assessed following proteasome inhibition and IP (right panel). Left panel is 10% of total cell lysate used for IP, indicating no discernable change in total ubiquitination. (E) Levels of endogenous HRD1 were monitored by CHX chase in the indicated cell types. (F) Ubiquitination of endogenous HRD1 was assessed following IP with HRD1 antiserum. Arrow in upper panel indicates migration of unmodified HRD1. Control immunoprecipitates using rabbit serum are shown for comparison. The data underlying this figure can be found in S1 Data. aa, amino acid; AUP1, ancient ubiquitous protein 1; CHX, cycloheximide; ERAD, endoplasmic reticulum–associated degradation; IP, immunoprecipitation; KO, knockout; WT, wild type.
as §1
In vitro translated ^35S methionine-labeled E2s were generated using the E. coli T7-S30 Extract System (Promega) and excess ^35S methionine was removed by desalting twice with Zeba Spin Desalting Columns (Thermo Scientific). GST fusion proteins were quantified by Coomassie blue staining. Moreover, 0.1 μg of GST fusion protein (approximately 3 pmol) was prebound to GS 4B (GE Healthcare) and then incubated with approximately 10^5 cpm of ^35S methionine-labeled E2 (approximately 0.2 pmol) in 200 μl Binding Buffer (25 mM Tris-HCl, pH 7.4, 50 mM NaCl, 5 mM DTT, 0.5% IGEPAL CA-630) overnight at 4°C. Beads were extensively washed in Binding Buffer, resolved on Bis/Tris polyacrylamide gels under reducing conditions, dried and visualized on a Typhoon FLA 7000 (GE Healthcare). Binding was quantified using ImageQuant Software.

Row | Molecule | restoration of NHK degradation [1] | NHK degradation, doubled amount of plasmid ([1]; repeat transfection with doubled amount of mutant, reviewer response) | binding to UBE2G2 (UBE2G2)
1 | A397D: AUP1 point mutant; GST-AUP1 aa 292 to 410 in vitro, full-length AUP1-FLAG in cells (protein, left off: GST, end not stated, kept, AUP1 point mutant; GST-AUP1 aa 292 to 410 in vitro, full-length AUP1-FLAG in cells) SPDVQLATLAQRVKEVLPHVPLGVIQRDLAKTGCVDLTITNLLEGAVAFMPEDITKGTQSLPTASASKFPSSGPVTPQPTALTFAKSSWARQESLQERKQALYEYDRRRFTERRAQEAD | failed to restore NHK degradation | unable to convince ourselves that there is any significant degradation | Binding was similarly lost
2 | Y394D: AUP1 point mutant (GST-AUP1 aa 292 to 410) (protein, left off: GST, end not stated, kept) SPDVQLATLAQRVKEVLPHVPLGVIQRDLAKTGCVDLTITNLLEGAVAFMPEDITKGTQSLPTASASKFPSSGPVTPQPTALTFAKSSWARQESLQERKQALDEYARRRFTERRAQEAD | – | – | reduced binding
3 | AUP1-FLAG: full-length epitope-tagged AUP1 (protein, UniProt Q9Y679 1-410, looked up, full-length FLAG tag) MELPSGPGPERLFDSHRLPGDCFLLLVLLLYAPVGFCLLVLRLFLGIHVFLVSCALPDSVLRRFVVRTMCAVLGLVARQEDSGLRDHSVRVLISNHVTPFDHNIVNLLTTCSTPLLNSPPSFVCWSRGFMEMNGRGELVESLKRFCASTRLPPTPLLLFPEEEATNGREGLLRFSSWPFSIQDVVQPLTLQVQRPLVSVTVSDASWVSELLWSLFVPFTVYQVRWLRPVHRQLGEANEEFALRVQQLVAKELGQTGTRLTPADKAEHMKRQRHPRLRPQSAQSSFPPSPGPSPDVQLATLAQRVKEVLPHVPLGVIQRDLAKTGCVDLTITNLLEGAVAFMPEDITKGTQSLPTASASKFPSSGPVTPQPTALTFAKSSWARQESLQERKQALYEYARRRFTERRAQEAD | restored NHK degradation | – | –
4 | 2A: AUP1 point mutant R382A/Q383A (GST-AUP1 aa 292 to 410) (protein, UniProt Q9Y679 1-410, looked up, variant R382A Q383A, GST fusion aa 292-410) Lipid droplet-regulating VLDL …: MELPSGPGPERLFDSHRLPGDCFLLLVLLLYAPVGFCLLVLRLFLGIHVFLVSCALPDSVLRRFVVRTMCAVLGLVARQEDSGLRDHSVRVLISNHVTPFDHNIVNLLTTCSTPLLNSPPSFVCWSRGFMEMNGRGELVESLKRFCASTRLPPTPLLLFPEEEATNGREGLLRFSSWPFSIQDVVQPLTLQVQRPLVSVTVSDASWVSELLWSLFVPFTVYQVRWLRPVHRQLGEANEEFALRVQQLVAKELGQTGTRLTPADKAEHMKRQRHPRLRPQSAQSSFPPSPGPSPDVQLATLAQRVKEVLPHVPLGVIQRDLAKTGCVDLTITNLLEGAVAFMPEDITKGTQSLPTASASKFPSSGPVTPQPTALTFAKSSWAAAESLQERKQALYEYARRRFTERRAQEAD | – | – | unable to disrupt UBE2G2 binding
5 | 2E: AUP1 point mutant; GST-AUP1 aa 292 to 410 in vitro, full-length AUP1-FLAG in cells (protein, UniProt Q9Y679 1-410, looked up, variant R382E Q383E, GST or FLAG tag, AUP1 point mutant; GST-AUP1 aa 292 to 410 in vitro, full-length AUP1-FLAG in cells) Lipid droplet-regulating VLDL …: MELPSGPGPERLFDSHRLPGDCFLLLVLLLYAPVGFCLLVLRLFLGIHVFLVSCALPDSVLRRFVVRTMCAVLGLVARQEDSGLRDHSVRVLISNHVTPFDHNIVNLLTTCSTPLLNSPPSFVCWSRGFMEMNGRGELVESLKRFCASTRLPPTPLLLFPEEEATNGREGLLRFSSWPFSIQDVVQPLTLQVQRPLVSVTVSDASWVSELLWSLFVPFTVYQVRWLRPVHRQLGEANEEFALRVQQLVAKELGQTGTRLTPADKAEHMKRQRHPRLRPQSAQSSFPPSPGPSPDVQLATLAQRVKEVLPHVPLGVIQRDLAKTGCVDLTITNLLEGAVAFMPEDITKGTQSLPTASASKFPSSGPVTPQPTALTFAKSSWAEEESLQERKQALYEYARRRFTERRAQEAD | restored degradation of NHK in the AUP1 KO cells, to a degree comparable to WT AUP1 | – | failed to disrupt UBE2G2 binding
6 | 5E: AUP1 point mutant; GST-AUP1 aa 292 to 410 in vitro, full-length AUP1-FLAG in cells (protein, UniProt Q9Y679 1-410, looked up, variant R382E Q383E K390E R398E R400E, GST or FLAG tag, AUP1 point mutant; GST-AUP1 aa 292 to 410 in vitro, full-length AUP1-FLAG in cells) Lipid droplet-regulating VLDL …: MELPSGPGPERLFDSHRLPGDCFLLLVLLLYAPVGFCLLVLRLFLGIHVFLVSCALPDSVLRRFVVRTMCAVLGLVARQEDSGLRDHSVRVLISNHVTPFDHNIVNLLTTCSTPLLNSPPSFVCWSRGFMEMNGRGELVESLKRFCASTRLPPTPLLLFPEEEATNGREGLLRFSSWPFSIQDVVQPLTLQVQRPLVSVTVSDASWVSELLWSLFVPFTVYQVRWLRPVHRQLGEANEEFALRVQQLVAKELGQTGTRLTPADKAEHMKRQRHPRLRPQSAQSSFPPSPGPSPDVQLATLAQRVKEVLPHVPLGVIQRDLAKTGCVDLTITNLLEGAVAFMPEDITKGTQSLPTASASKFPSSGPVTPQPTALTFAKSSWAEEESLQEREQALYEYAEREFTERRAQEAD | failed to restore NHK degradation | – | loss of detectable UBE2G2 binding

Source: PMC8699718, “A structurally conserved site in AUP1 binds the E2 enzyme UBE2G2 and is essential for ER-associated degradation” (PLoS Biology, 2021)
